Each block holds one binder with its values, some of them ahead of it.
Legend:
[1] = biological target: T1, Recombinant purified TRBC2 (human, UniProt A0A5B9 1-129, limits assumed); experiment: SPR, biotinylated TRBC captured on CAP chip, antibody injected; t1/2=ln 2/kd
T1 construct: Construct not described (may be a soluble TCR carrying TRBC2); also called TCR beta constant region 2; soluble recombinant biotinylated TRBC2
Procedure: (§1) To test multivalent interaction of scFv-Fc and scFv-COMP antibody formats, a series S CAP chip was immobilised with Biotin capture reagent to 2500-5000 RU. Soluble recombinant biotinylated TRBC1 and TRBC2 were captured on flow cells 3, in independent experimental cycles, to a density of 90-110 RU. Purified anti-TRBC2 scFv-Fc or scFv-COMP antibodies were injected over the flow cell with 150s contact time and 300s dissociation at 30 μl/minute of flow rate. On flow cell 1, biotinylated protein was omitted and used for reference subtraction. A ‘0 concentration’ sensorgram of buffer alone was used as a double reference subtraction to factor for drift. Data were fit to a 1:1 Langmuir binding model. Since a capture system was used, a local Rmax parameter was used for the data fitting in each case. Off-rate value was determined, and half-life calculated according to: t1/2=ln 2/kd.

[2] = biological target: T1, Recombinant purified TRBC2; experiment: SPR (Biacore T200), biotinylated TRBC2 captured on a CAP chip, scFv-COMP injected; half-life of dissociation, t1/2 = ln 2/kd [cont.) C]
Procedure: as §1

[3] = biological target: T1, Recombinant purified TRBC2; experiment: SPR (Biacore T200), captured anti-TRBC2 binder, recombinant TRBC2 as analyte; half-life of dissociation, t1/2 = ln 2/kd
Source text: (§2) To test 1:1 binding interaction of the anti-TRBC2 scFv, a series S CM5 sensor chip was immobilised via amine coupling, with an anti-human Fc capture antibody to a density of 9000-10000 RU, using a Biacore T200 instrument. HBS-P+ buffer was used as running buffer in all experimental conditions. The test anti-TRBC2 antibody was captured on flow 4 to a density of 200-250 RU. Recombinant purified TRBC1 or TRBC2 at known concentrations were used as the ‘analyte’ and injected over the respective flow cells with 150s contact time and 300s dissociation at 30 μl/minute of flow rate. Flow cell 1 was unmodified and used for reference subtraction. A ‘0 concentration’ sensorgram of buffer alone was used as a double reference subtraction to factor for drift. Data were fit to a 1:1 Langmuir binding model. Since a capture system was used, a local Rₘₐₓ parameter was used for the data fitting in each case. Off-rate value was determined, and half-life calculated according to: t1/2=ln 2/kd.

[4] = biological target: T1, Recombinant purified TRBC2; experiment: SPR, 1:1 interaction, antibody captured, TRBC as analyte; t1/2=ln 2/kd
Source text: as §2

T1 sequence (A0A5B9 1-129 limits assumed): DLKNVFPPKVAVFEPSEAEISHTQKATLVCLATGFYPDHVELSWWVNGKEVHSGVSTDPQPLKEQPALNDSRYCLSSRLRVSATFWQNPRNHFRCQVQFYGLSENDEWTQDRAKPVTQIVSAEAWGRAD

- half-life [1]: 438 s
- t1/2 [2]: 436 s
B1: anti-TRBC2 scFv-COMP (T28K, Y32F, A100N, Y102L, N103M in VH; N35R in VL of hJovi-1) (other)
chain: QVQLVQSGAEVKKPGASVKVSCKASGYKFTGFVMHWVRQAPGQGLEWMGFINPYNDDIQSNERFRGRVTMTRDTSISTAYMELSRLRSDDTAVYYCARGNGLMFDGAYRFFDFWGQGTMVTVSSGGGGSGGGGSGGGGSDIVMTQSPLSLPVTPGEPASISCRSSQRLVHSNGRTYLHWYLQKPGQSPRLLIYRVSNRFPGVPDRFSGSGSGTDFTLKISRVEAEDVGVYYCSQSTHVPYTFGQGTKLEIKRSGGGGSGGGGSGGGGSAGSDLGPQMLRELQETNAALQDVRELLRQQVREITFLKNTVMECDACGSGKKDPKSGGGGSYPYDVPDYA
notes: scFv fused to the COMP coiled-coil

- half-life [1]: 16.2 s
B2: anti-TRBC2 scFv-Fc (T28K, Y32F, A100N, Y102L, N103M in VH; N35R in VL of hJovi-1) (Fc fusion)
chain: QVQLVQSGAEVKKPGASVKVSCKASGYKFTGFVMHWVRQAPGQGLEWMGFINPYNDDIQSNERFRGRVTMTRDTSISTAYMELSRLRSDDTAVYYCARGNGLMFDGAYRFFDFWGQGTMVTVSSGGGGSGGGGSGGGGSDIVMTQSPLSLPVTPGEPASISCRSSQRLVHSNGRTYLHWYLQKPGQSPRLLIYRVSNRFPGVPDRFSGSGSGTDFTLKISRVEAEDVGVYYCSQSTHVPYTFGQGTKLEIKRSDPRGPTIKPCPPCKCPAPNLLGGPSVFIFPPKIKDVLMISLSPIVTCVVVDVSEDDPDVQISWFVNNVEVHTAQTQTHREDYNSTLRVVSALPIQHQDWMSGKEFKCKVNNKDLPAPIERTISKPKGSVRAPQVYVLPPPEEEMTKKQVTLTCMVTDFMPEDIYVEWTNNGKTELNYKNTEPVLDSDGSYFMYSKLRVEKKNWVERNSYSCSVVHEGLHNHHTTKSFSRTPGK
notes: Multivalent format

- t1/2 [3]: 8.3 s
- half-life [4]: 8 s
B3: anti-TRBC2 scFv (T28K, Y32F, A100N, Y102L, N103M in VH; N35R in VL of hJovi-1) (scFv)
scFv: QVQLVQSGAEVKKPGASVKVSCKASGYKFTGFVMHWVRQAPGQGLEWMGFINPYNDDIQSNERFRGRVTMTRDTSISTAYMELSRLRSDDTAVYYCARGNGLMFDGAYRFFDFWGQGTMVTVSSGGGGSGGGGSGGGGSDIVMTQSPLSLPVTPGEPASISCRSSQRLVHSNGRTYLHWYLQKPGQSPRLLIYRVSNRFPGVPDRFSGSGSGTDFTLKISRVEAEDVGVYYCSQSTHVPYTFGQGTKLEIKR
notes: the format in the assay is unsure

From patent publication US20220041718A1 (AUTOLUS, published 2022)
